Experiments:
[1] = biological target: T1, Human CD3 on CD3+ Jurkat cells (human, UniProt P07766 23-207); experiment: flow cytometry, 100 nM IgG1, pH 7.4
T1 construct: whole, on cells; Target is the endogenous CD3 complex on cells; also called Human CD3+ Jurkat cells
Experimental: (§1) Cell binding assays. CD3+ human Jurkat cells (ATCC) and CHO-S cells (Invitrogen/ThermoFisher) were thawed and washed with cold PBSF buffer, pH 7.4 (PBS+0.1% BSA, pH 7.4). About 200,000 cells were aliquoted per well of a 96-well plate (FACS Assay Plate VWR BD 353263) and pelleted by centrifugation (5 minutes at 500×g). The cells were washed with either PBSF pH 7.4 or PBSF pH 6.0 (PBS+0.1% BSA, pH 6.0), and then resuspended in 100 μl in either PBSF pH 7.4 or PBSF pH 6.0 with IgG1 antibody (100 nM) produced in yeast as described above or in CHO cells. The mixture (cells+antibody) was incubated for 20 minutes on ice, then washed twice with either PBSF pH 7.4 or PBSF pH 6.0. Cells were resuspended in 50 μl of propidium iodide (Roche; 1:500 dilution) and anti-human IgG-RPE (Southern Biotech; 1:100 dilution) prepared in either PBSF pH 7.4 or PBSF pH 6.0, then incubated for 20 minutes on ice in the dark before cells were washed twice with either PBSF pH 7.4 or PBSF pH 6.0. Binding was analyzed on FACS Canto II.
(§2) Anti-CD3 antibodies A001-A005, V002, V004, V007, V009, V010, V013, and V014-V019 were produced as IgG1s in CHO cells, and binding to human CD3+ Jurkat cells and cynomolgus CD3+ HSC-F cells at pH 7.4 was analyzed by flow cytometry as described in Example 2. NCB (Normalized Cell Binding) values were calculated based on control and sample MFI values as NCB={(Sample MFI)−(Secondary only MFI)}/(Secondary only MFI).

[2] = biological target: T2, Cynomolgus CD3 on HSC-F cells (cynomolgus, UniProt Q95LI5 22-198); experiment: flow cytometry, 100 nM IgG1, pH 7.4
T2 construct: whole, on cells; Target is the endogenous CD3 complex on cells; also called Cyno CD3 HSC-F cells; Cyno CD3+ HSC-F cells
Experimental: as §1, §2

T1 sequence (P07766 23-207): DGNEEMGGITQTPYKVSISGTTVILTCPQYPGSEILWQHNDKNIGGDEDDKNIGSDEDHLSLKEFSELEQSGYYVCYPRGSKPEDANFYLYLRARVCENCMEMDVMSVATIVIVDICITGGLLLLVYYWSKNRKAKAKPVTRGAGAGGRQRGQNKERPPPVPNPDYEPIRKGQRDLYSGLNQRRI
T2 sequence (Q95LI5 22-198): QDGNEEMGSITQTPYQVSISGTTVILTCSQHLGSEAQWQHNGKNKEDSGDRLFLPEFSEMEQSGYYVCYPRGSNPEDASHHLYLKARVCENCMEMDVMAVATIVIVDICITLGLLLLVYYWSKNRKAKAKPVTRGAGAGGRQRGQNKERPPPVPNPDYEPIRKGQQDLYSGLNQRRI

Row | Binder | NCB (Normalized Cell Binding) [1] | NCB (Normalized Cell Binding) [2]
1 | Antibody No. A003 (ADI-26913) IgG1 (antibody, V domains shown, IgG1, CHO-produced) VH: QVQLVQSGAEVKKPGASVKVSCKASGFNIKDYYMHWVRQAPGQRLEWMGWIDLENANTIYDAKFQGRVTITRDTSASTAYMELSSLRSEDTAVYYCARDQYGRYFYDVWGQGTLVTVSS VL: DIVMTQSPDSLAVSLGERATINCKSSQSLLNARTGKNYLAWYQQKPGQPPKLLIYWASTRESGVPDRFSGSGSGTDFTLTISSLQAEDVAVYYCKQSYSRRTFGGGTKVEIK | 209 | 367
2 | Antibody No. A005 (ADI-26921) IgG1 (antibody, V domains shown, IgG1, CHO-produced) VH: QVQLVQSGAEVKKPGASVKVSCKASGFNIKDYYMHWVRQAPGQRLEWMGWIDLEEGNTIYDAKFQGRVTITRDTSASTAYMELSSLRSEDTAVYYCARDAYGRYFYDVWGQGTLVTVSS VL: DIVMTQSPDSLAVSLGERATINCKSSQSLLNARTGKNYLAWYQQKPGQPPKLLIYWASTRESGVPDRFSGSGSGTDFTLTISSLQAEDVAVYYCKQSYSLRTFGGGTKVEIK | 206 | 364
3 | Antibody No. V019 (ADI-76362) IgG1 (antibody, V domains shown, IgG1, CHO-produced) VH: QVQLVQSGAEVKKPGASVKVSCKASGFNIKDYYMHWVRQAPGQRLEWMGWIDLEEGDTIYDAKFQGRVTITRDTSASTAYMELSSLRSEDTAVYYCARDAYGRYFYDVWGQGTLVTVSS VL: DIVMTQSPDSLAVSLGERATINCKSSQSLLNARTGKNYLAWYQQKPGQPPKLLIYWASTRESGVPDRFSGSGSGTDFTLTISSLQAEDVAVYYCKQSYSLRTFGGGTKVEIK | 328 | 373
4 | Antibody No. V016 (ADI-76359) IgG1 (antibody, V domains shown, IgG1, CHO-produced) VH: QVQLVQSGAEVKKPGASVKVSCKASGFDIKDYYMHWVRQAPGQRLEWMGWIDLENANTIYDAKFQGRVTITRDTSASTAYMELSSLRSEDTAVYYCGRDAYGRYFYDVWGQGTLVTVSS VL: DIVMTQSPDSLAVSLGERATINCKSSQSLLNARTGKNYLAWYQQKPGQPPKLLIYWASTRESGVPDRFSGSGSGTDFTLTISSLQAEDVAVYYCKQSYSLRTFGGGTKVEIK | 314 | 374
5 | Antibody No. A004 (ADI-26920) IgG1 (antibody, V domains shown, IgG1, CHO-produced) VH: QVQLVQSGAEVKKPGASVKVSCKASGFNIKDYYMHWVRQAPGQRLEWMGWIDLENANTIYDAKFQGRVTITRDTSASTAYMELSSLRSEDTAVYYCGRDAYGRYFYDVWGQGTLVTVSS VL: DIVMTQSPDSLAVSLGERATINCKSSQSLLNARTGKNYLAWYQQKPGQPPKLLIYWASTRESGVPDRFSGSGSGTDFTLTISSLQAEDVAVYYCKQSYSLRTFGGGTKVEIK | 240 | 348
6 | Antibody No. V017 (ADI-76360) IgG1 (antibody, V domains shown, IgG1, CHO-produced) VH: QVQLVQSGAEVKKPGASVKVSCKASGFNIKDYYMHWVRQAPGQRLEWMGWIDLENADTIYDAKFQGRVTITRDTSASTAYMELSSLRSEDTAVYYCGRDAYGRYFYDVWGQGTLVTVSS VL: DIVMTQSPDSLAVSLGERATINCKSSQSLLNARTGKNYLAWYQQKPGQPPKLLIYWASTRESGVPDRFSGSGSGTDFTLTISSLQAEDVAVYYCKQSYSLRTFGGGTKVEIK | 325 | 376
7 | Antibody No. V014 (ADI-76357) IgG1 (antibody, V domains shown, IgG1, CHO-produced) VH: QVQLVQSGAEVKKPGASVKVSCKASGFDIKDYYMHWVRQAPGQRLEWMGWIDLENANTIYDAKFQGRVTITRDTSASTAYMELSSLRSEDTAVYYCARDQYGRYFYDVWGQGTLVTVSS VL: DIVMTQSPDSLAVSLGERATINCKSSQSLLNARTGKNYLAWYQQKPGQPPKLLIYWASTRESGVPDRFSGSGSGTDFTLTISSLQAEDVAVYYCKQSYSRRTFGGGTKVEIK | 349 | 377
8 | Antibody No. V015 (ADI-76358) IgG1 (antibody, V domains shown, IgG1, CHO-produced) VH: QVQLVQSGAEVKKPGASVKVSCKASGFNIKDYYMHWVRQAPGQRLEWMGWIDLENADTIYDAKFQGRVTITRDTSASTAYMELSSLRSEDTAVYYCARDQYGRYFYDVWGQGTLVTVSS VL: DIVMTQSPDSLAVSLGERATINCKSSQSLLNARTGKNYLAWYQQKPGQPPKLLIYWASTRESGVPDRFSGSGSGTDFTLTISSLQAEDVAVYYCKQSYSRRTFGGGTKVEIK | 334 | 369
9 | Antibody No. V018 (ADI-76361) IgG1 (antibody, V domains shown, IgG1, CHO-produced) VH: QVQLVQSGAEVKKPGASVKVSCKASGFDIKDYYMHWVRQAPGQRLEWMGWIDLEEGNTIYDAKFQGRVTITRDTSASTAYMELSSLRSEDTAVYYCARDAYGRYFYDVWGQGTLVTVSS VL: DIVMTQSPDSLAVSLGERATINCKSSQSLLNARTGKNYLAWYQQKPGQPPKLLIYWASTRESGVPDRFSGSGSGTDFTLTISSLQAEDVAVYYCKQSYSLRTFGGGTKVEIK | 223 | 378

Reference: patent US20240317858A1 (Adimab, published 2024)
